According to patent US20250000946A1 (WUXI BIOLOGICS IRELAND, published 2025):
Positions count from the first letter of the chain named. Names and notes keep the numbering of the source.

T1: Human IL-2Rβ/γ (intermediate affinity IL-2 receptor) (human, UniProt P14784 27-551; P31785 23-369)
T1 construct: whole, on cells; also called IL-2Rβ/γc; IL-2Rβ (CD122) and γ (CD132)
T1 sequence (looked up) 1: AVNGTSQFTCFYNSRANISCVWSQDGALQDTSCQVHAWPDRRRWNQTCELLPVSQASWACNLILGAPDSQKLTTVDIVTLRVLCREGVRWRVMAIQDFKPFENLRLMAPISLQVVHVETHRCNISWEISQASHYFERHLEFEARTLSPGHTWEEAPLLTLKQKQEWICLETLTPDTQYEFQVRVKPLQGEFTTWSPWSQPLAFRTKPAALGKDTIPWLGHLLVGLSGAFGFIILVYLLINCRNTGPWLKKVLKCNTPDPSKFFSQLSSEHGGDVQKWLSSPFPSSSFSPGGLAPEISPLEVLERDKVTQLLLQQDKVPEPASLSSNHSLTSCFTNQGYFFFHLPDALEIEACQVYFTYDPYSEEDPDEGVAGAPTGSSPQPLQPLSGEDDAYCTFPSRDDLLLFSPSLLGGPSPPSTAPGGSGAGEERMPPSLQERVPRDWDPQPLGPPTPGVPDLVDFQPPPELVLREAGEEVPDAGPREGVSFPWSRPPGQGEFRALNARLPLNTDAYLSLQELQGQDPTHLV
T1 sequence (looked up) 2: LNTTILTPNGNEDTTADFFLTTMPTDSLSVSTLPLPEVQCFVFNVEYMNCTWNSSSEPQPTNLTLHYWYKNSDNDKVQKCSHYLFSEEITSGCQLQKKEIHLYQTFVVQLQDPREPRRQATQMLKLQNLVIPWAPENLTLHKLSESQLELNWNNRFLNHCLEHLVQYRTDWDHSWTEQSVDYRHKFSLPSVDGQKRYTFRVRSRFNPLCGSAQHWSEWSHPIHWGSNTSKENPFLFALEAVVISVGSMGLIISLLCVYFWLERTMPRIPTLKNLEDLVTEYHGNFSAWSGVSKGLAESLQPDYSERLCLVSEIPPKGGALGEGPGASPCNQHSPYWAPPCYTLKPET

T2: Human IL-2Rα/β/γ complex (high affinity IL-2 receptor) (human, UniProt P01589 22-272; P14784 27-551; P31785 23-369)
T2 sequence (looked up) 1: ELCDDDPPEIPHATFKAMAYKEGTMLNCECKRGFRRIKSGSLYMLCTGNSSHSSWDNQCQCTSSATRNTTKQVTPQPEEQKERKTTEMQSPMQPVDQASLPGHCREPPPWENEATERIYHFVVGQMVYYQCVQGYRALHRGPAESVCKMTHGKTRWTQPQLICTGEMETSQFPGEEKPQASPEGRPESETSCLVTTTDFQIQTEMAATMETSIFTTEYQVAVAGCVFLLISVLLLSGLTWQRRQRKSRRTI
T2 sequence (looked up) 2: T1 sequence (looked up) 1
T2 sequence (looked up) 3: T1 sequence (looked up) 2

B1: W3XX115-T2U0.E44-26.uIgG4V1 (Fc fusion)
chain: APTSSSTKKTQLQLEHLLLDLQMILNGINNYKNPKLTRMLTFKFYMPKKATELKHLQCLEEELKPLEEVLNLAQSKNFHLRPRDLISNINVIVLELKGSETTFMCEYADETATIVEFLNRWITFCQSILESKYGPPCPPCPAPEFLGGPSVFLFPPKPKDTLMISRTPEVTCVVVDVSQEDPEVQFNWYVDGVEVHNAKTKPREEQFNSTYRVVSVLTVLHQDWLNGKEYKCKVSNKGLPSSIEKTISKAKGQPREPQVYTLPPCQEEMTKNQVSLWCLVKGFYPSDIAVEWESNGQPENNYKTTPPVLDSDGSFFLYSRLTVDKSRWQEGNVFSCSVMHEALHNHYTQKSLSLSLG
heavy: EIQLQQSGPELVKPGASVKVSCKASGYSFTDYNMYWVKQSHGESLEWIGYIDPYNGGTRYNQKFKGKATLTVDKSSSTAFMHLNSLTSEDSAVYYCARNGHWDGAWFAYWGQGTLVTVSAASTKGPSVFPLAPCSRSTSESTAALGCLVKDYFPEPVTVSWNSGALTSGVHTFPAVLQSSGLYSLSSVVTVPSSSLGTKTYTCNVDHKPSNTKVDKRVESKYGPPCPPCPAPEFLGGPSVFLFPPKPKDTLMISRTPEVTCVVVDVSQEDPEVQFNWYVDGVEVHNAKTKPREEQFNSTYRVVSVLTVLHQDWLNGKEYKCKVSNKGLPSSIEKTISKAKGQPREPQVCTLPPSQEEMTKNQVSLSCAVKGFYPSDIAVEWESNGQPENNYKTTPPVLDSDGSFFLVSRLTVDKSRWQEGNVFSCSVMHEALHNHYTQKSLSLSLG
light: DIQMNQSPSSLSASLGDTITITCHASQNINVWLSWYQQKPGNIPKLLIYKASNLHTGVPSRFSGSRSGTGFTLTISSLQPEDIATYYCHQGQSYPFTFGSGTKLEIKRTVAAPSVFIFPPSDEQLKSGTASVVCLLNNFYPREAKVQWKVDNALQSGNSQESVTEQDSKDSTYSLSSTLTLSKADYEKHKVYACEVTHQGLSSPVTKSFNRGEC
notes: IL-2 del STLT and I129L; E44 format, IgG4
B2: W3XX115-T2U0.E44-25.uIgG4V1 (Fc fusion)
chain: APTSSSTKKTQLQLEHLLLDLQMILNGINNYKNPKLTRMLTFKFYMPKKATELKHLQCLEEELKPLEEVLNLAQSKNFHLRPRDLISNINVIVLELKGSETTFMCEYADETATIVEFLNRWITFCQSIIKYGPPCPPCPAPEFLGGPSVFLFPPKPKDTLMISRTPEVTCVVVDVSQEDPEVQFNWYVDGVEVHNAKTKPREEQFNSTYRVVSVLTVLHQDWLNGKEYKCKVSNKGLPSSIEKTISKAKGQPREPQVYTLPPCQEEMTKNQVSLWCLVKGFYPSDIAVEWESNGQPENNYKTTPPVLDSDGSFFLYSRLTVDKSRWQEGNVFSCSVMHEALHNHYTQKSLSLSLG
heavy: B1 heavy
light: B1 light
notes: IL-2 del STLT and 2 aa deleted in IgG4 N-terminal hinge; E44 format
B3: W3XX115-T2U0.E44-29.uIgG4V1 (Fc fusion)
chain: B1 chain with L129S
heavy: B1 heavy
light: B1 light
notes: IL-2 del STLT and I129S; E44 format, IgG4
B4: W3XX115-T2U0.E44-28.uIgG4V1 (Fc fusion)
chain: B1 chain with L129A
heavy: B1 heavy
light: B1 light
notes: IL-2 del STLT and I129A; E44 format, IgG4
B5: W3XX115-T2U0.E44-24.uIgG4V1 (Fc fusion)
chain: APTSSSTKKTQLQLEHLLLDLQMILNGINNYKNPKLTRMLTFKFYMPKKATELKHLQCLEEELKPLEEVLNLAQSKNFHLRPRDLISNINVIVLELKGSETTFMCEYADETATIVEFLNRWITFCQSIISKYGPPCPPCPAPEFLGGPSVFLFPPKPKDTLMISRTPEVTCVVVDVSQEDPEVQFNWYVDGVEVHNAKTKPREEQFNSTYRVVSVLTVLHQDWLNGKEYKCKVSNKGLPSSIEKTISKAKGQPREPQVYTLPPCQEEMTKNQVSLWCLVKGFYPSDIAVEWESNGQPENNYKTTPPVLDSDGSFFLYSRLTVDKSRWQEGNVFSCSVMHEALHNHYTQKSLSLSLG
heavy: B1 heavy
light: B1 light
notes: IL-2 del STLT and 1 aa deleted in IgG4 N-terminal hinge; E44 format
B6: W3XX115-T2U0.E44-27.uIgG4V1 (Fc fusion)
chain: B1 chain with L129V
heavy: B1 heavy
light: B1 light
notes: IL-2 del STLT and I129V; E44 format, IgG4
B7: W3XX115-T2U0.E44-30.uIgG4V1 (Fc fusion)
chain: B1 chain with L129T
heavy: B1 heavy
light: B1 light
notes: IL-2 del STLT and I129T; E44 format, IgG4

molecular target: T1, Human IL-2Rβ/γ (intermediate affinity …); experiment: FACS, HH cells; EC50 fold vs T2U0.E44-1
Experimental: (§1) Human cutaneous T cell lymphoma HH cells, malignant non-Hodgkin's lymphoma NK92 cells and cutaneous T cell lymphoma MJ20 cells were used for binding assay. They both constitutively express IL-2Rβ (CD122) and […] (CD132), and NK92 and MJ20 also expresses IL-2Rα (CD25). HH, NK92 and MJ20 cells were cultured following ATCC guidance, then transferred to a 96-plate for binding analysis. Cells were incubated with IL-2/Fc fusion proteins at the indicated concentrations for 30 min at 4° C. to avoid internalization. Binding was detected by 2nd antibody of PE-anti-human Fc at 4° C. for another 30 min. The median fluorescence intensity (MFI) on HH and NK92 cells was measured using FACS.

| Affinity reduction | Binder |
| --- | --- |
| 18.5 fold | B1 |
| 23.8 fold | B2 |
| 28.8 fold | B3 |
| 15.6 fold | B4 |
| 8.1 fold | B5 |
| 51.1 fold | B6 |

molecular target: T2, Human IL-2Rα/β/γ complex (high affinity …); experiment: cell-based or functional assay

| Potency in human Treg EC50 | Potency reduction (Treg) | Binder |
| --- | --- | --- |
| 1.16 nM | 460 fold | B1 |
| 0.022 nM | 8.8 fold | B2 |
| 3.76 nM | 1490 fold | B3 |
| 0.095 nM | 37.6 fold | B4 |
| 0.003 nM | 1.2 fold | B5 |
| 1.85 nM | 737 fold | B6 |
| 2.64 nM | 1050 fold | B7 |

molecular target: T1, Human IL-2Rβ/γ (intermediate affinity …); experiment: cell-based or functional assay

| Potency in human CD8+ T EC50 | Potency reduction (CD8+ T) | Binder |
| --- | --- | --- |
| 649 nM | 32.5 fold | B1 |
| 84.9 nM | 4.2 fold | B2 |
| 406 nM | 20.3 fold | B3 |
| 446 nM | 22.3 fold | B4 |
| 125 nM | 6.3 fold | B5 |
| 371 nM | 18.5 fold | B6 |
| 493 nM | 24.7 fold | B7 |

molecular target: T1, Human IL-2Rβ/γ (intermediate affinity …); experiment: FACS, HH cells
Experimental: as §1

| EC50 | Binder |
| --- | --- |
| 993 nM | B1 |
| 1280 nM | B2 |
| 1550 nM | B3 |
| 839 nM | B4 |
| 438 nM | B5 |
| 2740 nM | B6 |

molecular target: T2, Human IL-2Rα/β/γ complex (high affinity …); experiment: FACS, MJ20 cells; EC50 fold vs T2U0.E44-1
Experimental: as §1
(§2) Affinity of IL-2 variants to IL-2Rα/β/γ supported the same results (FIG. 8 and Table 7). […] And T2U0.E44-26, T2U0.E44-27, T2U0.E44-29 and T2U0.E44-30 induced hundreds to thousands affinity reduction in Treg compared to T2U0.E44-1. Binding curves in MJ20 cells (IL-2Rα/β/γ) also achieved similar trend (FIG. 8b). As a result, the method of C-terminal truncation and substitution of 129 was available to achieve IL-2Rβγ attenuated IL-2 variants.

| Affinity reduction | Binder |
| --- | --- |
| 3.1 fold | B1 |
| 4.5 fold | B2 |
| 17 fold | B3 |
| 7.4 fold | B4 |
| 1.3 fold | B5 |
| 5.4 fold | B6 |
| 13 fold | B7 |

molecular target: T2, Human IL-2Rα/β/γ complex (high affinity …); experiment: FACS, MJ20 cells
Experimental: as §1, §2

| EC50 | Binder |
| --- | --- |
| 42.8 nM | B1 |
| 63.2 nM | B2 |
| 233 nM | B3 |
| 103 nM | B4 |
| 18.4 nM | B5 |
| 75.3 nM | B6 |
| 183 nM | B7 |
